We go through one molecule from publication PMC3143299 (Journal of molecular biology, 2011).

Values joined by “and” are separate entries in the source; they are usually repeats but may differ in a detail not shown here. Equal values may be shown once.

The target in data set [1] is actin purified from rabbit skeletal muscle (F-actin) (rabbit, UniProt P68135 1-377). The data set is described as follows: co-sedimentation.
The data set “cross-linking” deals with the molecule itself. The data set is described as follows: cross-linking.

B1: recombinant full-length human FRG1 (His-tagged) (natural protein)
chain: not shown
By Kd is commonly meant the concentration at which binding is half-saturated. A word on the stoichiometry N: it is the number of molecules, sites or subunits per partner or assembly. Take B1: in data set [1], binding was characterised by a dissociation constant (Kd) of 160 ± 30 nM and the “stoichiometry N” value was 2 FRG1 per actin monomer. The “stoichiometry N” value in “cross-linking” is 2 and 4.
